On the set-up of data set [1]: species or system mice. The following applies: mouse, in vivo.
A further data set relates to MHC-II. Set-up: species or system mice; key: − = no visual staining; + = minimal staining; ++ = moderate staining; +++ = strong staining. As to conditions: mouse, in vivo.
Data set [2] has as its system VSV. More on the design: species or system mice. The following applies: mouse, in vivo, ip.
A further data set has as its system VSV protein. The data set is classed as cell-based, Vesicular stomatitis virus.
A further data set relates to MHC-I. Set-up: species or system mice; key: − = no visual staining; + = minimal staining; ++ = moderate staining; +++ = strong staining. As to conditions: mouse, in vivo.
The subject of another data set is IL-12. Set-up: species or system mice; key: − = no visual staining; + = minimal staining; ++ = moderate staining; +++ = strong staining. The following applies: mouse, in vivo.
Data set [3] has as its system VSV. More on the design: species or system mice; key: − = no visual staining; + = minimal staining; ++ = moderate staining; +++ = strong staining. The following applies: mouse, in vivo.
For a further data set, the system named is IFN-R. Set-up: species or system mice; key: − = no visual staining; + = minimal staining; ++ = moderate staining; +++ = strong staining. As to conditions: mouse, in vivo.
For data set [4], the system named is blood brain barrier. More on the design: species or system mice. The following applies: mouse, in vivo.
In the next data set the test system is VSV mRNA (N gene). The class given is cell-based, Vesicular stomatitis virus.
The subject of data set [5] is VSV. The data set is classed as in vivo, mice. As to conditions: mouse, in vivo.
For data set [6], the system named is blood brain barrier. The following applies: mouse, in vivo.

Some results are limits rather than exact numbers.
Wherever MHC-I relative intensity of staining is given: test concentration or dose not given here.

B1: IL-12: Murine rIL-12 provided by Genetics Institute (protein, UniProt P43431 23-215; P43432 23-335, looked up)
Interleukin-12 subunit alpha: RVIPVSGPARCLSQSRNLLKTTDDMVKTAREKLKHYSCTAEDIDHEDITRDQTSTLKTCLPLELHKNESCLATRETSSTTRGSCLPPQKTSLMMTLCLGSIYEDLKMYQTEFQAINAALQNHNHQQIILDKGMLVAIDELMQSLNHNGETLRQKPPVGEADPYRVKMKLCILLHAFSTRVVTINRVMGYLSSA
Interleukin-12 subunit beta: MWELEKDVYVVEVDWTPDAPGETVNLTCDTPEEDDITWTSDQRHGVIGSGKTLTITVKEFLDAGQYTCHKGGETLSHSHLLLHKKENGIWSTEILKNFKNKTFLKCEAPNYSGRFTCSWLVQRNMDLKFNIKSSSSSPDSRAVTCGMASLSAEKVTLDQRDYEKYSVSCQEDVTCPTAEETLPIELALEARQQNKYENYSTSFFIRDIIKPDPPKNLQMKPLKNSQVEVSWEYPDSWSTPHSYFSLKFFVRIQRKKEKMKETEEGCNQKGAFLVEKTSTEVQCKGGNVCVQAQDRYYNSSCSKWACVPCRVRS
B1: in data set [1], the “Time at which weight exceeded initial measurements” value is listed as not above 12 days after infection, the “Time at which weight exceeded initial measures” value was not above 12 days after infection and the “Weight loss recovery from VSV infection” value is listed as “rapidly recover from the weight loss”. Also, in the data set with MHC-II, the “MHC-II relative intensity of staining” value is “++ and + and +++ and −”. In the data set on VSV [2], the “Number of survivors versus control medium” value is “greater”; the “Survival and weight recovery from VSV infection” value is on record as “not able to rescue”; the “Survival rate from VSV infection versus control mice” value is “twice the survival rate”. The “Difference in relative amounts of viral protein between treated and untreated samples” value with VSV protein is “approximately 80%”. Besides, the “MHC-I relative intensity of staining” value in the data set on MHC-I is “++ and + and +++ and −”. Further, in the data set with IL-12, the “IL-12 relative intensity of staining” value is “+ and − and ++”. Also, the “VSV relative intensity of staining” value in the data set with VSV [3] is “+++ and ++ and + and −”. For the same molecule, the “IFN-R relative intensity of staining” value in the data set with IFN-R was “++ and − and +”. Further, the “Breakage of the BBB (Evans blue)” value in the data set with blood brain barrier [4] was “did not show breakage of the BBB”. Further, the “Difference in relative amounts of viral mRNA between treated and untreated samples” value in the data set with VSV mRNA (N gene) was “approximately 20%”. Moreover, the “Decrease of VSV titer in brain homogenates” value with VSV [5] is reported as “about 100 fold”. Further, in the data set on blood brain barrier [6], the “Integrity of the BBB (TEM, intercellular junction gaps)” value is “not enough to disrupt the integrity of the BBB”.

Source of the values: patent US7012061B1 (New York University, priority 1998, dated 2006).
